In the supplement of paper PMC11246515:
± gives the standard deviation of the averaged measurements.

Experiment: total protein half-life in vivo (active degradation + dilution); higher = more stable protein
[1] = E. coli NCM3722 delta-clpP delta-lon delta-hslV, growth: N-lim chemostat, doubling time 6 h
[2] = E. coli NCM3722 delta-lon, growth: N-lim chemostat, doubling time 6 h
[3] = wild type E. coli NCM3722, growth: C-lim chemostat, doubling time 6 h
[4] = wild type E. coli NCM3722, growth: C-lim chemostat, doubling time 12 h
[5] = wild type E. coli NCM3722, growth: N-lim chemostat, doubling time 12 h
[6] = E. coli NCM3722 delta-clpP, growth: N-lim chemostat, doubling time 6 h
[7] = E. coli NCM3722 delta-hslV, growth: N-lim chemostat, doubling time 6 h
[8] = E. coli NCM3722 delta-smpB, growth: N-lim chemostat, doubling time 6 h
[9] = wild type E. coli NCM3722, growth: C-lim chemostat, doubling time 3 h
[10] = wild type E. coli NCM3722, growth: N-lim chemostat, doubling time 6 h
[11] = wild type E. coli NCM3722, growth: P-lim chemostat, doubling time 6 h
[12] = wild type E. coli NCM3722, growth: P-lim chemostat, doubling time 12 h

Row | Sequence | total protein half-life in vivo [1] | total protein half-life in vivo [2] | total protein half-life in vivo [3] | total protein half-life in vivo [4] | total protein half-life in vivo [5] | total protein half-life in vivo [6] | total protein half-life in vivo [7] | total protein half-life in vivo [8] | total protein half-life in vivo [9] | total protein half-life in vivo [10] | total protein half-life in vivo [11] | total protein half-life in vivo [12]
1 | MTLTRREFIKHSGIAAGALVVTSAAPLPAWAEEKGGKILTAGRWGAMNVEVKDGKIVSSTGALAKTIPNSLQSTAADQVHTTARIQHPMVRKSYLDNPLQPAKGRGEDTYVQVSWEQALKLIHEQHDRIRKANGPSAIFAGSYGWRSSGVLHKAQTLLQRYMNLAGGYSGHSGDYSTGAAQVIMPHVVGSVEVYEQQTSWPLILENSQVVVLWGMNPLNTLKIAWSSTDEQGLEYFHQLKKSGKPVIAIDPIRSETIEFFDDNATWIAPNMGTDVALMLGIAHTLMTQGKHDKVFLEKYTTGYPQFEEYLTGKSDNTPKSAVWAAEITGVPEAQIVKLAELMAANRTMLMAGWGIQRQQYGEQKHWMLVTLAAMLGQIGTPGGGFGFSYHYSNGGNPTRVGGVLPEMSAAIAGHASEAADDGGMTAIPVARIVDALENPGGKYQHNGKEQTYPNIKMIWWAGGGNFTHHQDTNRLIKAWQKPEMIVVSECYWTAAAKHADIVLPITTSFERNDLTMTGDYSNQHIVPMKQAVAPQFEARNDFDVFADLAELLKPGGKEIYTEGKDEMAWLKFFYDAAQKGARAQRVTMPMFNAFWQQNKLIEMRHSEKNEQYVRYGDFRADPVKNALGTPSGKIEIYSKTLEKFGYKDCPAHPTWLAPDEWKGTADEKQLQLLTAHPAHRLHSQLNYAELRKKYAIADREPITIHTEDAARFGIANGDLVRVWNKRGQILTGAVVTDGIKKGVVCVHEGAWPDLENGLCKNGSANVLTADIPSSQLANACAGNSALVYIEKYTGNAPKLTAFDQPAVQA | 5.67 ± 0.3 h | 5.13 h | 4.75 ± 0.64 h | 11.5 ± 6.1 h | 8.13 h |  |  |  |  |  |  | 
2 | MTLWINGDWITGQGASRVKRNPVSGEVLWQGNDADAAQVEQACRAARAAFPRWARLSFAERHAVVERFAALLESNKAELTAIIARETGKPRWEAATEVTAMINKIAISIKAYHVRTGEQRSEMPDGAASLRHRPHGVLAVFGPYNFPGHLPNGHIVPALLAGNTIIFKPSELTPWSGEAVMRLWQQAGLPPGVLNLVQGGRETGQALSALEDLDGLLFTGSANTGYQLHRQLSGQPEKILALEMGGNNPLIIDEVADIDAAVHLTIQSAFVTAGQRCTCARRLLLKSGAQGDAFLARLVAVSQRLTPGNWDDEPQPFIGGLISEQAAQQVVTAWQQLEAMGGRPLLAPRLLQAGTSLLTPGIIEMTGVAGVPDEEVFGPLLRVWRYDTFDEAIRMANNTRFGLSCGLVSPEREKFDQLLLEARAGIVNWNKPLTGAASTAPFGGIGASGNHRPSAWYAADYCAWPMASLESDSLTLPATLNPGLDFSDEVVR | 5.21 ± 0.42 h | 4.05 ± 0.23 h | 5.5 ± 0.65 h | 10.05 ± 0.096 h | 6.26 ± 0.56 h | 3.93 ± 0.27 h | 3.9 ± 0.23 h | 3.9 ± 0.34 h | 3.01 ± 0.28 h | 3.67 ± 0.23 h | 5.78 ± 0.31 h | 12.1 ± 1.7 h
3 | MTMFQYYKRSRHFVFSAFIAFVFVLLCQNTAFARASSNGDLPTKADLQAQLDSLNKQKDLSAQDKLVQQDLTDTLATLDKIDRIKEETVQLRQKVAEAPEKMRQATAALTALSDVDNDEETRKILSTLSLRQLETRVAQALDDLQNAQNDLASYNSQLVSLQTQPERVQNAMYNASQQLQQIRSRLDGTDVGETALRPSQKVLMQAQQALLNAEIDQQRKSLEGNTVLQDTLQKQRDYVTANSARLEHQLQLLQEAVNSKRLTLTEKTAQEAVSPDEAARIQANPLVKQELEINQQLSQRLITATENGNQLMQQNIKVKNWLERALQSERNIKEQIAVLKGSLLLSRILYQQQQTLPSADELENMTNRIADLRLEQFEVNQQRDALFQSDAFVNKLEEGHTNEVNSEVHDALLQVVDMRRELLDQLNKQLGNQLMMAINLQINQQQLMSVSKNLKSILTQQIFWVNSNRPMDWDWIKAFPQSLKDEFKSMKITVNWQKAWPAVFIAFLAGLPLLLIAGLIHWRLGWLKAYQQKLASAVGSLRNDSQLNTPKAILIDLIRALPVCLIILAVGLILLTMQLNISELLWSFSKKLAIFWLVFGLCWKVLEKNGVAVRHFGMPEQQTSHWRRQIVRISLALLPIHFWSVVAELSPLHLMDDVLGQAMIFFNLLLIAFLVWPMCRESWRDKESHTMRLVTITVLSIIPIALMVLTATGYFYTTLRLAGRWIETVYLVIIWNLLYQTVLRGLSVAARRIAWRRALARRQNLVKEGAEGAEPPEEPTIALEQVNQQTLRITMLLMFALFGVMFWAIWSDLITVFSYLDSITLWHYNGTEAGAAVVKNVTMGSLLFAIIASMVAWALIRNLPGLLEVLVLSRLNMRQGASYAITTILNYIIIAVGAMTVFGSLGVSWDKLQWLAAALSVGLGFGLQEIFGNFVSGLIILFERPVRIGDTVTIGSFSGTVSKIRIRATTITDFDRKEVIIPNKAFVTERLINWSLTDTTTRLVIRLGVAYGSDLEKVRKVLLKAATEHPRVMHEPMPEVFFTAFGASTLDHELRLYVRELRDRSRTVDELNRTIDQLCRENDINIAFNQLEVHLHNEKGDEVTEVKRDYKGDDPTPAVG | 5.8 ± 0.075 h | 6.99 ± 1.1 h | 5.56 ± 0.15 h | 11.1 ± 2.1 h | 13.1 ± 1.6 h | 6.4 ± 0.7 h | 5.72 ± 0.36 h | 5.79 ± 0.11 h | 3.06 ± 0.094 h | 6.73 ± 0.33 h | 5.94 ± 0.43 h | 11.4 ± 0.85 h
4 | MTMPTNQCPWRMQVHHITQETPDVWTISLICHDYYPYRAGQYALVSVRNSAETLRAYTISSTPGVSEYITLTVRRIDDGVGSQWLTRDVKRGDYLWLSDAMGEFTCDDKAEDKFLLLAAGCGVTPIMSMRRWLAKNRPQADVRVIYNVRTPQDVIFADEWRNYPVTLVAENNVTEGFIAGRLTRELLAGVPDLASRTVMTCGPAPYMDWVEQEVKALGVTRFFKEKFFTPVAEAATSGLKFTKLQPAREFYAPVGTTLLEALESNNVPVVAACRAGVCGCCKTKVVSGEYTVSSTMTLTDAEIAEGYVLACSCHPQGDLVLA | 3.27 ± 0.63 h |  |  |  |  |  |  |  |  |  |  | 
5 | MTNITKRSLVAAGVLAALMAGNVALAADVPAGVTLAEKQTLVRNNGSEVQSLDPHKIEGVPESNISRDLFEGLLVSDLDGHPAPGVAESWDNKDAKVWTFHLRKDAKWSDGTPVTAQDFVYSWQRSVDPNTASPYASYLQYGHIAGIDEILEGKKPITDLGVKAIDDHTLEVTLSEPVPYFYKLLVHPSTSPVPKAAIEKFGEKWTQPGNIVTNGAYTLKDWVVNERIVLERSPTYWNNAKTVINQVTYLPIASEVTDVNRYRSGEIDMTNNSMPIELFQKLKKEIPDEVHVDPYLCTYYYEINNQKPPFNDVRVRTALKLGMDRDIIVNKVKAQGNMPAYGYTPPYTDGAKLTQPEWFGWSQEKRNEEAKKLLAEAGYTADKPLTINLLYNTSDLHKKLAIAASSLWKKNIGVNVKLVNQEWKTFLDTRHQGTFDVARAGWCADYNEPTSFLNTMLSNSSMNTAHYKSPAFDSIMAETLKVTDEAQRTALYTKAEQQLDKDSAIVPVYYYVNARLVKPWVGGYTGKDPLDNTYTRNMYIVKH | 5.05 ± 0.41 h | 6.25 ± 0.66 h | 6.215 ± 0.047 h | 12.7 ± 1.9 h | 12 ± 0.33 h | 5.96 ± 0.98 h | 6.62 ± 0.85 h | 6.01 ± 0.075 h | 3.13 ± 0.1 h | 6.22 ± 0.13 h | 6.03 ± 0.071 h | 12.3 ± 0.35 h
6 | MTNNDTTLQLSSVLNRECTRSRVHCQSKKRALEIISELAAKQLSLPPQVVFEAILTREKMGSTGIGNGIAIPHGKLEEDTLRAVGVFVQLETPIAFDAIDNQPVDLLFALLVPADQTKTHLHTLSLVAKRLADKTICRRLRAAQSDEELYQIITDTEGTPDEA | 4.58 ± 0.29 h | 5.82 h | 5.18 ± 1.6 h | 9.11 ± 5.2 h | 5.69 ± 0.31 h | 3.48 ± 2.9 h | 5.17 ± 0.097 h | 3.01 ± 0.57 h | 2.46 ± 0.65 h | 3.79 h | 3.46 ± 1.9 h | 8.38 ± 1.6 h
